Data on five molecules can be found in publication PMC12754631, “Cis‐2‐decenoic acid modulates Pseudomonas aeruginosa virulence through a noncanonical transcriptional regulator” (mLife, 2025).

For series [1], the target named is T1, FadD1 (Pseudomonas aeruginosa PAO1) (UniProt Q9HYU4).
T1 sequence: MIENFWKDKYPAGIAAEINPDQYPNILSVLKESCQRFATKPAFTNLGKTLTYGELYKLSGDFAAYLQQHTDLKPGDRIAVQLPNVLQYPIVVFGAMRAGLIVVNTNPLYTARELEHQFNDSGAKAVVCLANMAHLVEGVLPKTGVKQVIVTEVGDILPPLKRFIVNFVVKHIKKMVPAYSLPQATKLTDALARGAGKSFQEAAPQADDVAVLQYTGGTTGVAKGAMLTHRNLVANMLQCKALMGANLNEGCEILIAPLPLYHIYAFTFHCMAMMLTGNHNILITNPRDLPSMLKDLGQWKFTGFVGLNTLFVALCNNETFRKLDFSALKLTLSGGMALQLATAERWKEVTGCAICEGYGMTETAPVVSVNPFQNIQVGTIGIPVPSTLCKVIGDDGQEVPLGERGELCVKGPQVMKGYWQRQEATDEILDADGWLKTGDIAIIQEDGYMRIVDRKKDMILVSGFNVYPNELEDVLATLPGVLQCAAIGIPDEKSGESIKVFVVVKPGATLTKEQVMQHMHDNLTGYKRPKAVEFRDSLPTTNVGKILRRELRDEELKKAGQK
Nature of the series: EMSA. (In EMSA bound probe runs differently from free probe, usually more slowly.)

A further series has as its target T2, FadD1 (Pseudomonas aeruginosa, UniProt Q9HYU4).
T2 construct: expressed in E. coli BL21, Ni-NTA, His-tag removed by TEV protease; labelled for MST
Nature of the series: microscale thermophoresis. The series is classed as binding. Background: MST reads how a fluorescent partner responds to local heating, with and without ligand.

As a reminder, the Kd is the free concentration of one partner at which half of the binding sites on the other are occupied at equilibrium, for simple one-to-one binding. Read a high Kd as lower affinity.

As to “ATCTCATGCAGATGCCGGAGTTCTCCCTGAACTTCGCCTTGTTGCATACATGGCAAGCGCGCCATGGCGGAGCGCGACGGCTGAATATCTAGCACGAAAGTGAAAATAGAAAAGAACGAGATTTCATAAGGGCGGGCGCCGTTTTTAACAGGTTGTTCATGCGTCGCCGCTAGTTTGTTGTCTTTCACAGAACTGTTCGATGAACGGACTTGTTGCATTAGAACAATAAGTCCCGATGGAACTTCGGGGGACCGTGTGAAGCGTTCGCTGTTCAATTGTGCGCAC (double strand) [PA0692 promoter]”, in series [1], the binding result is “binds”.

As to “GTGCGCACAATTGAACAGCGAACGCTTCACACGGTCCCCCGAAGTTCCATCGGGACTTATTGTTCTAATGCAACAAGTCCGTTCATCGAACAGTTCTGTGAAAGACAACAAACTAGCGGCGACGCATGAACAACCTGTTAAAAACGGCGCTATGAAATCTCGTTCTTTTCTATTTTCACTTTCGTGCTAGATATTCAGCCGTCGCGCTCCGCCATGGCGCGCTTGCCATGTATGCAACAAGGCGAAGTTCAGGGAGAACTCCGGCATCTGCATGAGAT (double strand) [PA0692 promoter, AGGGCGG deleted]”, the binding entry in series [1] is given as “no binding”. `CCCCCCC/C=C\C(=O)O` [cis-DA] came in with a Kd at FadD1 of 1.06 ± 0.14 µM. Still for that read-out and setting: the value for `CCCCCCCCC/C=C\C(=O)O` [BDSF] was 1.65 ± 0.21 µM. In the case of “GTCGGCGTTTCATGGAATTGTCACAACCGCACAGTATCGCTTGCGGTAAAGCGGCCCAGGTGGTCGAACGTTGTCATAGGGAGGGGGATGCTCGATGGCTGAAGGCTGCGTCCTGAACGGTGCTGGCATAACAGATAGGGTTGCCATGATTTTGCCGTATCGGCAAGGCTGCGCGCTTGACAGCGTCATACCCCGGGCCAATTCTGCTGTGATGCATTTTATCGATCAGGGCTTACTGCAATGAGGAATGACGGAGGCTTTTTGCTGTGG (double strand) [rhlR promoter]”, the binding result in series [1] is listed as “no binding”.
